The source of these data is patent publication US8637043B2, “Compositions useful as ligands for the formyl peptide receptor like 1 receptor and methods of use thereof” (Chemocentryx, Inc., priority 2001, dated 2014).

Where “and” joins values, the source holds several entries; their conditions need not be identical. Equal entries are not always repeated.

The test system of one experiment is mononuclear cells. The experiment is described as follows: Mononuclear cell infiltration into the dermis after intradermal injection. It counts as in vivo, Rhesus macaques. The protocol:
Different amounts (8, 20, or 60 μg in 100 μl PBS) of different polypeptides (see Table 18) were injected intradermally in Rhesus macaques under anesthesia. Twenty-four and 48 hours later, 6 mm skin punch biopsies were taken using aseptic technique and then bisected. One portion of the biopsy was embedded in OCT compound, flash frozen in liquid nitrogen and stored at −70° C. The other portion was immersed in formalin and embedded in paraffin wax; subsequently, sections cut on a microtome were stained with hematoxylin and eosin and then microscopically examined for cell infiltration into the dermis (Table 18). As a negative control, monkeys were injected with PBS lacking any polypeptides.
Mononuclear cell infiltration was scored on a scale of 0 to 5:0, very mild perivascular mononuclear inflammatory infiltration throughout the dermis; 1, a mild perivascular mononuclear inflammatory infiltrate seen throughout the dermis; 2, a mild/moderate perivascular mononuclear inflammatory infiltrate seen throughout the dermis; 3, a moderate perivascular mononuclear inflammatory infiltrate seen throughout the dermis; 4, an extensive perivascular mononuclear inflammatory infiltrate seen throughout the dermis; 5, a florid perivascular mononuclear inflammatory infiltrate seen throughout the dermis. intermediate scores are indicates, e.g., “⅔” represents a score between 2 and 3.

The subject of a further experiment is dendritic cells. The experiment is described as follows: Dendritic cell infiltration after intradermal injection in mice (anti-DEC-205 staining). More on the design: key to Dendritic cell infiltration Score / Infiltration Score: 0 = none, 1 = slight, 2 = mild, 3 = moderate, 4 = severe. The format is in vivo. The text has this:
The following chemokines were obtained from R&D Systems (Minneapolis, Minn.): vMCK-2, mC10, and GM-CSF. The following peptides were synthesized at Phoenix Pharmaceuticals (San Carlos, Calif.): SHAAYtide (SEQ ID NO:6), several […] MODIFIED peptides of SHAAGtide variant (SEQ ID NO:) (i.e. cyclized using the MPR-Cys linked cyclization), control peptide (SEQ ID NO:33, […]Gin Pro Gly lie Lys Arg Arg Trp Leu Met), randomly conjugated to OVA in either a 1:1 or 1:4 ratio (by MBS coupling method), and conjugated to OVA at the C-terminus (C-term, made by the addition of a cysteine), and SHAAGtide variant (SEQ ID NO:3). In three separate experiments, chemokines or peptides (2 μg or 20 μg in PBS) were injected intradermally into BALB/c or C57BI/6 mice (Jackson Laboratory; Bar Harbor, Me.). In each experiment, one mouse received an injection of PBS only as a negative control. At various times after injection, the mice were euthanized, and the area around the injection site was excised and subjected to immunohistology. Frozen sections were stained with anti-DEC-205 antibody (Bio-Whittaker Molecular Applications; Rockland, Me.) that recognizes a dendritic cell-specific molecule (Kraal et al., 1986). A relative staining number on a scale of […] was assigned to each section (0, none; 1, slight; 2, mild; 3, moderate; 4, severe).

Another experiment relates to infiltrating cells. The experiment is described as follows: Immunohistochemistry of infiltrating cells in injected skin samples. The format is in vivo, Rhesus macaques. The conditions noted are these: injected skin samples of Example 14. The protocol:
To better define the identity of the infiltrating cells seen in Example 14 (Table 18), the same samples were analyzed by immunohistochemistry using antibodies specific for different cell types. These antibodies included: CD68 (expressed on macrophages, neutrophils and dendritic cells), MHC II (antigen-presenting cells, e.g. macrophages and dendritic cells), HAM-56 (macrophages), fascin (dendritic cells, endothelial cells and epithelial cells), elastase (neutrophils), cytokeratin (epithelial cells), CD3 (T cells), CD20 (B cells), and CD1a (Langerhans cells).

B1: mC10: chemokine obtained from R&D Systems (protein, UniProt P27784 22-116, looked up)
C-C motif chemokine 6: GLIQEMEKEDRRYNPPIIHQGFQDTSSDCCFSYATQIPCKRFIYYFPTSGGCIKPGIIFISRRGTQVCADPSDRRVQRCLSTLKQGPRSGNKVIA
Turning to B1, the “Mononuclear cell infiltration score” value in the experiment on mononuclear cells (8 μg, 24 hours) is on record as 1; with mononuclear cells (8 μg, 48 hours), 0; in the experiment with mononuclear cells (20 μg, 24 hours) it was 0; in the experiment on mononuclear cells (20 μg, 48 hours) it was 0; in the experiment on mononuclear cells (60 μg intradermally, 24 hours, scale 0 (very mild) to 5 (florid)) it was 0; with mononuclear cells (60 μg, 48 hours) it was 0. Also, the “cell infiltration, in words” value with mononuclear cells (summary of Table 18) was “little to no infiltration”. The “Dendritic cell infiltration Score” value is 2 in the experiment with dendritic cells (BALBc mice, 2 μg, 6 hours); 3 and 2 in the experiment on dendritic cells (BALBc mice, 2 μg, 30 hours); 2 in the experiment on dendritic cells (BALBc mice, 20 μg, 6 hours); 1 (2×) and 2 with dendritic cells (C57B1/6 mice, 2 μg dose, 6 hours, 0 none, 1 slight, 2 mild, 3 moderate, 4 severe, one animal per line); 2 and 1 in the experiment with dendritic cells (C57B1/6 mice, 2 μg dose, 30 hours); 0 with dendritic cells (C57B1/6 mice, 2 μg dose, 51 hours). Besides, the “infiltration of DEC-205-labeled cells” value with dendritic cells (summary of Tables 15, 16 and 17) was “excellent infiltration”. In addition, the “identity of infiltrating cells” value in the experiment on infiltrating cells was “primarily antigen-presenting cells, including macrophages and dendritic cells, but few neutrophils”.
